First the molecules themselves.
B1: library; numbered along this chain (parent)
chain: MEVVDPQQLGMFTEGELMSVGMDTFIHRIDSTEVIYQPRRKRAKLIGKYLMGDLLGEGSYGKVKEVLDSETLCRRAVKILKKKKLRRIPNGEANVKKEIQLLRRLRHKNVIQLVDVLYNEEKQKMYMVMEYCVCGMQEMLDSVPEKRFPVCQAHGYFCQLIDGLEYLHSQGIVHKDIKPGNLLLTTGGTLKISDLGVAEALHPFAADDTCRTSQGSPAFQPPEIANGLDTFSGFKVDIWSAGVTLYNITTGLYPFEGDNIYKLFENIGKGSYAIPGDCGPPLSDLLKGMLEYEPAKRFSIRQIRQHSWFRKKHPPAEAPVPIPPSPDTKDRWRSMTVVPYLEDLHGADEDEDLFDIEDDIIYTQDFTVPGQVPEEEASHNGQRRGLPKAVCMNGTEAAQLSTKSRAEGRAPNPARKACSASSKIRRLSACKQQ

From the supplement of paper PMC12338614 come the findings set out here.

± gives the uncertainty stated by the source.

Variants of B1 are the subject of this series. Briefly: STK11 functional score (HeLa growth suppression), rescaled enrichment; synonymous median = 1, nonsense median = 0 (normalised score). The conditions noted are these: with HeLa; variant type: missense. The gist of the method: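 The functional score takes the post/pre-selection log ratio, corrects it to wild type, rescales it to synonymous and nonsense medians, and merges it over codons and replicate transfections, with error from bootstrapping. Counts came from tiled gDNA amplicons sequenced on NextSeq (~2 million reads per tile). The libraries were POPCode codon-randomised, codon-optimised STK11 integrated by Bxb1 at an AAVS1 landing pad in HeLa, three regions with three transfections each.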
With MEVVDPQQLGMFTEGELMSVGMDTFIHRIDSTEVIYQPRRKRAKLIGKYLMGDLLGEGSYGKVKEVLDSETLCRRAVKILKKKKLRRIPNGEANVKKEIQLLRRLRHKNVIQLVDVLYNEEKQKMYMVMEYCVCGMQEMLDSVPEKRFPVCQAHGYFCQLIDGLEYLHSQGIVHKDIKPGNLLLTTGGTLKISDLGVAEALHPFAADDTCRTSQGSPAFQPPEIANGLDTFSGFKVDIWSAGVTLYNITTGLYPFEGDNIYKLFENIGKGSYAIPGDCGPPLSDLLKGMLEYEPAKRFSIRQIRQHSWFRKKHPPAEAPVPIPPSPDTKDRWRSRTVVPYLEDLHGADEDEDLFDIEDDIIYTQDFTVPGQVPEEEASHNGQRRGLPKAVCMNGTEAAQLSTKSRAEGRAPNPARKACSASSKIRRLSACKQQ [M335R], the STK11 functional score came to 1.46 ± 0.3.

As to MEVVDPQQLGMFTEGELMSVGMDTFIHRIDSTEVIYQPRRKRAKLIGKYLMGDLLGEGSYGKVKEVLDSETLCRRAVKILKKKKLRRIPNGEANVKKEIQLLRRLRHKNVIQLVDVLYNEEKQKMYMVMEYCVCGMQEMLDSVPEKRFPVCQAHGYFCQLIDGLEYLHSQGIVHKDIKPGNLLLTTGGTLKISDLGVAEALHPFAADDTCRTSQGSPAFQPPEIANGLDTFSGFKVDIWSAGVTLYNITTGLYPFEGDNIYKLFENIGKGSYAIPGDCGPPLSDLLKGMLEYEPAKRFSIRQIRQHSWFRKKHPPAEAPVPIPPSPDTKDRWRSQTVVPYLEDLHGADEDEDLFDIEDDIIYTQDFTVPGQVPEEEASHNGQRRGLPKAVCMNGTEAAQLSTKSRAEGRAPNPARKACSASSKIRRLSACKQQ [M335Q], the STK11 functional score is 1.01 ± 0.25.

MEVVDPQQLGMFTEGELMSVGMDTFIHRIDSTEVIYQPRRKRAKLIGKYLMGDLLGEGSYGKVKEVLDSETLCRRAVKILKKKKLRRIPNGEANVKKEIQLLRRLRHKNVIQLVDVLYNEEKQKMYMVMEYCVCGMQEMLDSVPEKRFPVCQAHGYFCQLIDGLEYLHSQGIVHKDIKPGNLLLTTGGTLKISDLGVAEALHPFAADDTCRTSQGSPAFQPPEIANGLDTFSGFKVDIWSAGVTLYNITTGLYPFEGDNIYKLFENIGKGSYAIPGDCGPPLSDLLKGMLEYEPAKRFSIRQIRQHSWFRKKHPPAEAPVPIPPSPDTKDRWRSSTVVPYLEDLHGADEDEDLFDIEDDIIYTQDFTVPGQVPEEEASHNGQRRGLPKAVCMNGTEAAQLSTKSRAEGRAPNPARKACSASSKIRRLSACKQQ [M335S]: the STK11 functional score turned out to be 1.53 ± 0.18.

With MEVVDPQQLGMFTEGELMSVGMDTFIHRIDSTEVIYQPRRKRAKLIGKYLMGDLLGEGSYGKVKEVLDSETLCRRAVKILKKKKLRRIPNGEANVKKEIQLLRRLRHKNVIQLVDVLYNEEKQKMYMVMEYCVCGMQEMLDSVPEKRFPVCQAHGYFCQLIDGLEYLHSQGIVHKDIKPGNLLLTTGGTLKISDLGVAEALHPFAADDTCRTSQGSPAFQPPEIANGLDTFSGFKVDIWSAGVTLYNITTGLYPFEGDNIYKLFENIGKGSYAIPGDCGPPLSDLLKGMLEYEPAKRFSIRQIRQHSWFRKKHPPAEAPVPIPPSPDTKDRWRSVTVVPYLEDLHGADEDEDLFDIEDDIIYTQDFTVPGQVPEEEASHNGQRRGLPKAVCMNGTEAAQLSTKSRAEGRAPNPARKACSASSKIRRLSACKQQ [M335V], the STK11 functional score came out at 1.42 ± 0.13.

As to MEVVDPQQLGMFTEGELMSVGMDTFIHRIDSTEVIYQPRRKRAKLIGKYLMGDLLGEGSYGKVKEVLDSETLCRRAVKILKKKKLRRIPNGEANVKKEIQLLRRLRHKNVIQLVDVLYNEEKQKMYMVMEYCVCGMQEMLDSVPEKRFPVCQAHGYFCQLIDGLEYLHSQGIVHKDIKPGNLLLTTGGTLKISDLGVAEALHPFAADDTCRTSQGSPAFQPPEIANGLDTFSGFKVDIWSAGVTLYNITTGLYPFEGDNIYKLFENIGKGSYAIPGDCGPPLSDLLKGMLEYEPAKRFSIRQIRQHSWFRKKHPPAEAPVPIPPSPDTKDRWRSYTVVPYLEDLHGADEDEDLFDIEDDIIYTQDFTVPGQVPEEEASHNGQRRGLPKAVCMNGTEAAQLSTKSRAEGRAPNPARKACSASSKIRRLSACKQQ [M335Y], the STK11 functional score was determined as 1.32 ± 0.35.

For MEVVDPQQLGMFTEGELMSVGMDTFIHRIDSTEVIYQPRRKRAKLIGKYLMGDLLGEGSYGKVKEVLDSETLCRRAVKILKKKKLRRIPNGEANVKKEIQLLRRLRHKNVIQLVDVLYNEEKQKMYMVMEYCVCGMQEMLDSVPEKRFPVCQAHGYFCQLIDGLEYLHSQGIVHKDIKPGNLLLTTGGTLKISDLGVAEALHPFAADDTCRTSQGSPAFQPPEIANGLDTFSGFKVDIWSAGVTLYNITTGLYPFEGDNIYKLFENIGKGSYAIPGDCGPPLSDLLKGMLEYEPAKRFSIRQIRQHSWFRKKHPPAEAPVPIPPSPDTKDRWRSTTVVPYLEDLHGADEDEDLFDIEDDIIYTQDFTVPGQVPEEEASHNGQRRGLPKAVCMNGTEAAQLSTKSRAEGRAPNPARKACSASSKIRRLSACKQQ [M335T], the STK11 functional score came out at 1.46 ± 0.19.

MEVVDPQQLGMFTEGELMSVGMDTFIHRIDSTEVIYQPRRKRAKLIGKYLMGDLLGEGSYGKVKEVLDSETLCRRAVKILKKKKLRRIPNGEANVKKEIQLLRRLRHKNVIQLVDVLYNEEKQKMYMVMEYCVCGMQEMLDSVPEKRFPVCQAHGYFCQLIDGLEYLHSQGIVHKDIKPGNLLLTTGGTLKISDLGVAEALHPFAADDTCRTSQGSPAFQPPEIANGLDTFSGFKVDIWSAGVTLYNITTGLYPFEGDNIYKLFENIGKGSYAIPGDCGPPLSDLLKGMLEYEPAKRFSIRQIRQHSWFRKKHPPAEAPVPIPPSPDTKDRWRSWTVVPYLEDLHGADEDEDLFDIEDDIIYTQDFTVPGQVPEEEASHNGQRRGLPKAVCMNGTEAAQLSTKSRAEGRAPNPARKACSASSKIRRLSACKQQ [M335W]: the STK11 functional score is 0.367 ± 0.13.

Regarding MEVVDPQQLGMFTEGELMSVGMDTFIHRIDSTEVIYQPRRKRAKLIGKYLMGDLLGEGSYGKVKEVLDSETLCRRAVKILKKKKLRRIPNGEANVKKEIQLLRRLRHKNVIQLVDVLYNEEKQKMYMVMEYCVCGMQEMLDSVPEKRFPVCQAHGYFCQLIDGLEYLHSQGIVHKDIKPGNLLLTTGGTLKISDLGVAEALHPFAADDTCRTSQGSPAFQPPEIANGLDTFSGFKVDIWSAGVTLYNITTGLYPFEGDNIYKLFENIGKGSYAIPGDCGPPLSDLLKGMLEYEPAKRFSIRQIRQHSWFRKKHPPAEAPVPIPPSPDTKDRWRSMHVVPYLEDLHGADEDEDLFDIEDDIIYTQDFTVPGQVPEEEASHNGQRRGLPKAVCMNGTEAAQLSTKSRAEGRAPNPARKACSASSKIRRLSACKQQ [T336H], the STK11 functional score turned out to be 1.59 ± 0.14.

MEVVDPQQLGMFTEGELMSVGMDTFIHRIDSTEVIYQPRRKRAKLIGKYLMGDLLGEGSYGKVKEVLDSETLCRRAVKILKKKKLRRIPNGEANVKKEIQLLRRLRHKNVIQLVDVLYNEEKQKMYMVMEYCVCGMQEMLDSVPEKRFPVCQAHGYFCQLIDGLEYLHSQGIVHKDIKPGNLLLTTGGTLKISDLGVAEALHPFAADDTCRTSQGSPAFQPPEIANGLDTFSGFKVDIWSAGVTLYNITTGLYPFEGDNIYKLFENIGKGSYAIPGDCGPPLSDLLKGMLEYEPAKRFSIRQIRQHSWFRKKHPPAEAPVPIPPSPDTKDRWRSMGVVPYLEDLHGADEDEDLFDIEDDIIYTQDFTVPGQVPEEEASHNGQRRGLPKAVCMNGTEAAQLSTKSRAEGRAPNPARKACSASSKIRRLSACKQQ [T336G]: the STK11 functional score came out at 1.15 ± 0.16.

Regarding MEVVDPQQLGMFTEGELMSVGMDTFIHRIDSTEVIYQPRRKRAKLIGKYLMGDLLGEGSYGKVKEVLDSETLCRRAVKILKKKKLRRIPNGEANVKKEIQLLRRLRHKNVIQLVDVLYNEEKQKMYMVMEYCVCGMQEMLDSVPEKRFPVCQAHGYFCQLIDGLEYLHSQGIVHKDIKPGNLLLTTGGTLKISDLGVAEALHPFAADDTCRTSQGSPAFQPPEIANGLDTFSGFKVDIWSAGVTLYNITTGLYPFEGDNIYKLFENIGKGSYAIPGDCGPPLSDLLKGMLEYEPAKRFSIRQIRQHSWFRKKHPPAEAPVPIPPSPDTKDRWRSMCVVPYLEDLHGADEDEDLFDIEDDIIYTQDFTVPGQVPEEEASHNGQRRGLPKAVCMNGTEAAQLSTKSRAEGRAPNPARKACSASSKIRRLSACKQQ [T336C], the STK11 functional score was 1.27 ± 0.34.

With MEVVDPQQLGMFTEGELMSVGMDTFIHRIDSTEVIYQPRRKRAKLIGKYLMGDLLGEGSYGKVKEVLDSETLCRRAVKILKKKKLRRIPNGEANVKKEIQLLRRLRHKNVIQLVDVLYNEEKQKMYMVMEYCVCGMQEMLDSVPEKRFPVCQAHGYFCQLIDGLEYLHSQGIVHKDIKPGNLLLTTGGTLKISDLGVAEALHPFAADDTCRTSQGSPAFQPPEIANGLDTFSGFKVDIWSAGVTLYNITTGLYPFEGDNIYKLFENIGKGSYAIPGDCGPPLSDLLKGMLEYEPAKRFSIRQIRQHSWFRKKHPPAEAPVPIPPSPDTKDRWRSMEVVPYLEDLHGADEDEDLFDIEDDIIYTQDFTVPGQVPEEEASHNGQRRGLPKAVCMNGTEAAQLSTKSRAEGRAPNPARKACSASSKIRRLSACKQQ [T336E], the STK11 functional score was found to be 1.61 ± 0.15.

Take MEVVDPQQLGMFTEGELMSVGMDTFIHRIDSTEVIYQPRRKRAKLIGKYLMGDLLGEGSYGKVKEVLDSETLCRRAVKILKKKKLRRIPNGEANVKKEIQLLRRLRHKNVIQLVDVLYNEEKQKMYMVMEYCVCGMQEMLDSVPEKRFPVCQAHGYFCQLIDGLEYLHSQGIVHKDIKPGNLLLTTGGTLKISDLGVAEALHPFAADDTCRTSQGSPAFQPPEIANGLDTFSGFKVDIWSAGVTLYNITTGLYPFEGDNIYKLFENIGKGSYAIPGDCGPPLSDLLKGMLEYEPAKRFSIRQIRQHSWFRKKHPPAEAPVPIPPSPDTKDRWRSMDVVPYLEDLHGADEDEDLFDIEDDIIYTQDFTVPGQVPEEEASHNGQRRGLPKAVCMNGTEAAQLSTKSRAEGRAPNPARKACSASSKIRRLSACKQQ [T336D]: the STK11 functional score is 0.148 ± 0.11.

In the case of MEVVDPQQLGMFTEGELMSVGMDTFIHRIDSTEVIYQPRRKRAKLIGKYLMGDLLGEGSYGKVKEVLDSETLCRRAVKILKKKKLRRIPNGEANVKKEIQLLRRLRHKNVIQLVDVLYNEEKQKMYMVMEYCVCGMQEMLDSVPEKRFPVCQAHGYFCQLIDGLEYLHSQGIVHKDIKPGNLLLTTGGTLKISDLGVAEALHPFAADDTCRTSQGSPAFQPPEIANGLDTFSGFKVDIWSAGVTLYNITTGLYPFEGDNIYKLFENIGKGSYAIPGDCGPPLSDLLKGMLEYEPAKRFSIRQIRQHSWFRKKHPPAEAPVPIPPSPDTKDRWRSMIVVPYLEDLHGADEDEDLFDIEDDIIYTQDFTVPGQVPEEEASHNGQRRGLPKAVCMNGTEAAQLSTKSRAEGRAPNPARKACSASSKIRRLSACKQQ [T336I], the STK11 functional score came out at 1.35 ± 0.33.

MEVVDPQQLGMFTEGELMSVGMDTFIHRIDSTEVIYQPRRKRAKLIGKYLMGDLLGEGSYGKVKEVLDSETLCRRAVKILKKKKLRRIPNGEANVKKEIQLLRRLRHKNVIQLVDVLYNEEKQKMYMVMEYCVCGMQEMLDSVPEKRFPVCQAHGYFCQLIDGLEYLHSQGIVHKDIKPGNLLLTTGGTLKISDLGVAEALHPFAADDTCRTSQGSPAFQPPEIANGLDTFSGFKVDIWSAGVTLYNITTGLYPFEGDNIYKLFENIGKGSYAIPGDCGPPLSDLLKGMLEYEPAKRFSIRQIRQHSWFRKKHPPAEAPVPIPPSPDTKDRWRSMAVVPYLEDLHGADEDEDLFDIEDDIIYTQDFTVPGQVPEEEASHNGQRRGLPKAVCMNGTEAAQLSTKSRAEGRAPNPARKACSASSKIRRLSACKQQ [T336A]: the STK11 functional score came out at 1.52 ± 0.23.
